From patent US20200231671A1 (E R SQUIBB AND SONS L L C, published 2020)

T1: human LAG-3 full-length extra loop peptide (human, conjugated to biotin)
T1 construct: Exposed extra loop of the immunoglobulin-like first extracellular domain of LAG-3; also called LAG-3 extra loop
T1 peptide: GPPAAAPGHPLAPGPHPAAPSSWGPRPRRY

T2: mouse LAG-3 (cell surface, 3A9 mouse T cell hybridoma) (mouse, UniProt Q61790 24-521)
T2 construct: whole, on cells; also called mLAG-3
T2 sequence (looked up): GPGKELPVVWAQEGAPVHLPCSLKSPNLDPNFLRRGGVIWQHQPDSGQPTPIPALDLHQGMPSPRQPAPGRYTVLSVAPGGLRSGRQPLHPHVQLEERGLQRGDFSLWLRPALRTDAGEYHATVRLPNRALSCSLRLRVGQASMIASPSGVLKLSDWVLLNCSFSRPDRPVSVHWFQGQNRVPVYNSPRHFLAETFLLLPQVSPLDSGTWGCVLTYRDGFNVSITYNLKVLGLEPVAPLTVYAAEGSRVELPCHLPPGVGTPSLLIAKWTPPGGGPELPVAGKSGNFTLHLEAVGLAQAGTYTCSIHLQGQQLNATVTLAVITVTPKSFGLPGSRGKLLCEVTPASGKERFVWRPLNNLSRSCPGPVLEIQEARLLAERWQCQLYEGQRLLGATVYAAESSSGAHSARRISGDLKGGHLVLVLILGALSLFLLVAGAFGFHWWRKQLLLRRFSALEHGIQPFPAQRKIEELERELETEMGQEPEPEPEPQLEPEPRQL

T3: LAG-3 fusion protein comprising human LAG-3 extracellular domain fused to mouse Fc (human, UniProt P18627 23-450)
T3 construct: extracellular domain; also called hLAG-3-mIg; LAG-3-mIg; not shown: mouse Fc
T3 sequence (looked up): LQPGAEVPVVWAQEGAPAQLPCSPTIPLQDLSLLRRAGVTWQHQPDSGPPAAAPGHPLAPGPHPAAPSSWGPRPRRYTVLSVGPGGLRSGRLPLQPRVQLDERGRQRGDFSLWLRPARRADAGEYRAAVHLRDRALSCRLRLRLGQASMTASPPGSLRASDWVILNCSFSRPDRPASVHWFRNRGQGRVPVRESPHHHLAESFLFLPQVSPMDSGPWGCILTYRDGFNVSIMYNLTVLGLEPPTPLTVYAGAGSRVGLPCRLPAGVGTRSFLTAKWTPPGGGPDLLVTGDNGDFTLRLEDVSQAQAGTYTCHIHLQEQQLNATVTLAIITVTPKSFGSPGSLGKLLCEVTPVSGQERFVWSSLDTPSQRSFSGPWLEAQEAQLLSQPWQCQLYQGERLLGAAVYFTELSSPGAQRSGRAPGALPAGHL


Key:
[1] = molecular target: T1, human LAG-3 full-length extra loop …; test: ELISA on human full-length extra loop peptide
Experimental: To further examine binding of these antibodies to the extra loop peptide region, additional ELISA assays were performed. In an ELISA assay using the human full-length extra loop peptide (SEQ ID NO: 79), EC₅₀ values for binding were determined for 25E3, 25F7 and 8B7. Additionally, a similar peptide ELISA was conducted using the full length extra loop peptide sequence from rhesus monkey LAG-3, having the sequence […] (SEQ ID NO: 90), and EC₅₀ values for binding were determined for 25F7 and 8B7. […] Moreover, antibodies 25F7 and 8B7 also bind to the rhesus LAG-3 extra loop peptide region, albeit less well compared to the human sequence, which may be due to the species sequence divergence in this polypeptide. The results also confirm that the 26H10 antibody is not capable of recognizing the LAG-3 extra loop peptide.

[2] = molecular target: T4, cynomolgus monkey LAG-3 on activated cynomolgus monkey T cells (cynomolgus monkey); test: flow cytometry, activated cynomolgus CD4+ T cells
T4 construct: whole, on cells
Experimental: To test the ability of the antibodies to bind to native human LAG-3 on the surface of activated human T cells, resting CD4⁺ T cells were isolated from purified peripheral blood mononuclear cells and subjected to three days of stimulation with a combination of anti-CD3 and anti-CD28 antibodies affixed to polystyrene beads. The 25F7, 8B7 and 26H10 monoclonal antibodies were serially diluted with cold 1×PFAE buffer (1×PBS+2% FBS, 0.02% sodium azide, 2 mM Na EDTA). For the binding reaction, 50 μl of diluted antibody solution was mixed with 50 μl of PE-labeled anti-human CD4 (BD Bioscience, Cat # 555347). Activated T cells were processed by the same protocol described above. The analysis of antibody binding was conducted as described above.
In a separate experiment, the antibodies were tested for binding to cynomolgus monkey LAG-3 using activated cynomolgus monkey T cells. In vitro activation of these monkey T cells was achieved through anti-CD³/anti-CD28 treatment of the T cells by essentially the same protocol described above for the in vitro activation of human T cells, followed by flow cytometry analysis performed as described above for staining of in vitro activated human CD4⁺ T cells.

[3] = molecular target: T2, mouse LAG-3 (cell surface, 3A9 mouse T …); test: flow cytometry, 3A9 cells transfected with mouse LAG-3
Experimental: To determine whether the antibodies cross-reacted with mouse LAG-3, similar flow cytometry studies to those described above were performed using as the target cell a mouse T cell hybridoma cell line (3A9) that had been transfected to express mouse LAG-3 on its cell surface, followed by FACS analysis to detect antibody binding.

[4] = molecular target: T3, LAG-3 fusion protein comprising human …; test: flow cytometry, inhibition of hLAG-3-mIg binding to MHC Class II on Daudi cells
Experimental: To test the ability of the anti-LAG-3 antibodies to inhibit binding of LAG-3 to MHC Class II molecules, an in vitro binding assay was performed in which a LAG-3 fusion protein, comprising human LAG-3 extracellar domain fused to mouse Fc (hLAG-3-mIg), was reacted with Daudi cells, which express human MHC Class II molecules.
This mixture was incubated for 20 minutes at room temperature prior to adding to 2×10^{5 1}×PFAE-washed Daudi cells. The mixture was applied to Daudi cells and incubated at 4° C. for 30 minutes. The cells were pelleted (three minutes, 400×g), washed once with 1×PFAE buffer and re-pelleted, and binding of hLAG-3-mIg to the Daudi cells was detected using a recombinant PE-labeled anti-mIgG Fcγ secondary reagent. Analysis of LAG-3-mIg binding was carried out with the FACScalibur flow cytometer (BD Bioscience).

Row | Binder | EC50 [1] | EC50 [2] | binding result [3] | IC50 [4] | binding result [1]
1 | 26H10 human monoclonal antibody (antibody, IgG1, V domains shown, also called 26H10-FITC) VH: QVQLVESGGGVVQPGRSLRLSCAASGFTFSSYGMHWVRQAPGKGLEWVAVIWYDGSNKYYADSVKGRFTISRDNSKNTLYLQMNSLRAEDTAVYYCAREWAVASWDYGMDVWGQGTTVTVSS VL: not shown | – | 5.19 nM | no binding | 0.1 nM | no binding
2 | 25E3 human monoclonal antibody (antibody, IgG1, V domains shown) VH: EVQLVESGGGVVRPGGSLRLSCAASGFTFDDYGMSWVRQAPGKGLEWVSGINWNGGSTYYADSVKGRFTISGDNAKNSLYLQMNSLRAEDTALYYCTTGGYWGQGTLVTVSS VL: AIQLTQSPSSLSASVGDRVTITCRASQGIRSALAWYQQKPGKAPKLLIYDASSLESGVPSRFSGSGSGTDFTLTISSLQPEDFATYYCQQFNSYPYTFGQGTKLEIK | 0.55 nM | – | no binding | 0.8 to 6.78 nM | –

Continued, values first:

Row | EC50 [1] | EC50 [2] | binding result [3] | IC50 [4] | binding result [1] | Binder
3 | 0.29 to 0.95 nM | 14.2 nM | no binding | 0.12 to 0.92 nM | – | 25F7 human monoclonal antibody (antibody, IgG1, V domains shown, also called 25F7-FITC (IgG1 version)) VH: QVQLQQWGAGLLKPSETLSLTCAVYGGSFSDYYWNWIRQPPGKGLEWIGEINHNGNTNSNPSLKSRVTLSLDTSKNQFSLKLRSVTAADTAVYYCAFGYSDYEYNWFDPWGQGTLVTVSS VL: EIVLTQSPATLSLSPGERATLSCRASQSISSYLAWYQQKPGQAPRLLIYDASNRATGIPARFSGSGSGTDFTLTISSLEPEDFAVYYCQQRSNWPLTFGQGTNLEIK
4 | 0.28 to 1.35 nM | 30.4 nM | no binding | 0.19 to 0.95 nM | – | 8B7 human monoclonal antibody (antibody, IgG4, V domains shown, also called 8B7-FITC) VH: QVQLQQWGAGLLKPSETLSLTCAVYGGSFSGYYWSWIRQPPGKGLEWIGEINHRGNTNCNPSLKSRVTISGDTSKKQFALKLNSVTAADTAVYYCARGYDILTGYYEDSWGPGTLVTVSS VL: EIVLTQSPATLSLSPGERATLSCRASQSVSSYLAWYQQKPGQAPRLLIYNASNRATGIPARFSGSGSGTDFTLTISSLEPEDFAVYYCQQRSNWPLTFGGGTKVEIK
